Experimental data as given in publication PMC11629065.

What was measured:
[1] = target: IL1RL1 with the extracellular risk allele (rs1041973 [C]) and the TIR signalling domain risk haplotype (rs10192157 [C]) (human) (UniProt Q01638)
[2] = target: IL1RL1 with the extracellular risk allele (rs1041973 [C]) and the protective TIR signalling domain haplotype (rs10192157 [T]) (human) (UniProt Q01638)
[3] = target: IL1RL1 with the extracellular risk allele (rs1041973 [C]) and the TIR signalling domain risk haplotype (rs10192157 [C]) (human) (UniProt Q01638); remark: listed apart in the source

| Molecule | IL8 EC50 (IL8 ELISA of supernatant, transfected HEK293, risk:risk haplotype) [1] [pM] | IL8 in supernatant (ELISA) of HEK293 reporter cells transfected with IL1RL1, IL33 0.0001-50 ng/mL, 24 h; IL8 ELISA maximum [1] [pg/µL] | SEAP EC50 Risk:Risk (NF-κB SEAP reporter, transfected HEK293) [1] [pM] | SEAP activity (NF-κB reporter) in supernatant of HEK293 reporter cells transfected with IL1RL1, IL33 0.0001-50 ng/mL, 24 h; SEAP maximum (OD) [1] [OD] | SEAP EC50 Risk:Prot (NF-κB SEAP reporter, transfected HEK293) [2] [pM] | IL8 in supernatant (ELISA) of HEK293 reporter cells transfected with IL1RL1; maximum as told in the text (differs from the table's cell) [3] [pg/mL] |
| --- | --- | --- | --- | --- | --- | --- |
| IL33 Exon 3,4 deletion variant (IL33_(Δ3,4)) (ligand) | 1500 | 28.1 | 22.1 | 2.47 | 46.6 | 28.1 |
| IL33_(109–270) (ligand) HDSSITGISPITEYLASLSTYNDQSITFALEDESYEIYVEDLKKDEKKDKVLLSYYESQHPSNESGDGVDGKMLMVTLSPTKDFWLHANNKEHSVELHKCEKPLPDQAFFVLHNMHSNCVSFECKTDPGVFIGVKDNHLALIKVDSSENLCTENILFKLSET | 1.17 | 24.6 | 14.7 | 3.07 | 71.2 | – |
| IL33_(95–270) (ligand) AFGISGVQKYTRALHDSSITGISPITEYLASLSTYNDQSITFALEDESYEIYVEDLKKDEKKDKVLLSYYESQHPSNESGDGVDGKMLMVTLSPTKDFWLHANNKEHSVELHKCEKPLPDQAFFVLHNMHSNCVSFECKTDPGVFIGVKDNHLALIKVDSSENLCTENILFKLSET | 0.74 | 49.7 | 6.99 | 3.79 | 42.7 | – |
| IL33_(99–270) (ligand) SGVQKYTRALHDSSITGISPITEYLASLSTYNDQSITFALEDESYEIYVEDLKKDEKKDKVLLSYYESQHPSNESGDGVDGKMLMVTLSPTKDFWLHANNKEHSVELHKCEKPLPDQAFFVLHNMHSNCVSFECKTDPGVFIGVKDNHLALIKVDSSENLCTENILFKLSET | 29000 | 42.9 | 29.2 | 3.58 | 90.6 | – |
| IL33_(113–270) (ligand) ITGISPITEYLASLSTYNDQSITFALEDESYEIYVEDLKKDEKKDKVLLSYYESQHPSNESGDGVDGKMLMVTLSPTKDFWLHANNKEHSVELHKCEKPLPDQAFFVLHNMHSNCVSFECKTDPGVFIGVKDNHLALIKVDSSENLCTENILFKLSET | 1580 | 37.8 | 13.5 | 2.6 | 188 | – |
| IL33_(112–270) (ABNOVA) (ligand) SITGISPITEYLASLSTYNDQSITFALEDESYEIYVEDLKKDEKKDKVLLSYYESQHPSNESGDGVDGKMLMVTLSPTKDFWLHANNKEHSVELHKCEKPLPDQAFFVLHNMHSNCVSFECKTDPGVFIGVKDNHLALIKVDSSENLCTENILFKLSET | 69.8 | 24.6 | 46.2 | 3.28 | 200 | – |
